How the values were obtained:
RAB-GDI1 = RAB-GDI1 (UniProt P31150); assay: GFP-Trap co-IP, RAB-GDI1 blot; settings: reference: wild type; sites T86
[1] = target: MADD (DENN/MADD, RAB3-GEP) (UniProt Q8WXG6); assay: GFP-Trap co-IP, HA blot; settings: reference: wild type; sites T86

binding against the reference (RAB-GDI1): stronger
binding against the reference [1]: stronger
Substance: RAB3A (from UniProt P20336) T86A

Source: article doi:10.1101/2023.07.25.550521
